Experimental data published in the nanobody polyreactivity screen of Harvey et al. (2022).

Test: yeast display, Sf9 membrane polyspecificity reagent, FACS + sequencing; frameworks hold sequencing errors
In short: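 Galactose-induced (36–48 hours) yeast carrying a synthetic nanobody display library were exposed to 10% biotinylated, detergent-solubilized Sf9 membrane reagent at 4 °C for 1 hour. FACS followed streptavidin microbead enrichment, using low and high (top ~1%) gates for expression (anti-HA) and reagent binding (streptavidin). Colony PCR, MiSeq 2 × 250 sequencing and CDR-length filtering followed. Labels for polyreactivity reflect the gate of origin.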

| Sequence | polyreactivity (PSR sort gate) |
| --- | --- |
| QVQLVESGGGLVQAGGSLRLSCAASGNIFKYYTMRWYRQAPGKERELVAAITSGGRTNYADSVKGRFTISRDNAKNTVYLQMNSLKPEDTAVYYCAAYDVIYSQGFDYWGQGTQVTVSS | low polyreactivity |
| QVQLVESGGGLVQAGGSLRLSCAASGNIFLYYAMGWYRQAPGKERELVADIDSSGASTYYADSVKGRFTMSRDNAKNTVYLQMNSLKPEDTAVYYCAAEFHWWYAGYDYGYWGQGTQVTVSS | low polyreactivity |
| QVQLVESGGGLVQAGGSLRLSCAASGNIFNLYAMGWYRQAPGKERELVAAIRGSGSTYYADSVKGRFTISRDNAKNTVYLQMNSLKPEDTAVYYCAAGISGHYYWGQGTQVTVSS | high polyreactivity |
| QVQLVESGGGLVQAGGSLRLSCAASGNIFNTYAMGWYRQAPGKERELVAVISSRCGRTYYADSVKGRFTISRENAKNTVYLQMNSLKPEDTAVYYCAAGKHVTFSYEYRMDYWGVGTQVTVSS | low polyreactivity |
| QVQLVESGGGLVQAGGSLRLSCAASGNIFPDYAMGWYRQAPGKERELVAAISSSGSSTYYADSVKGRFTISRDNAKNTVYLQMNSLKKEDTAVYYCATRVYLPTFYIRDTQYYYWGQGTQVTVSS | low polyreactivity |
| QVQLVESGGGLVQAGGSLRLSCAASGNIFPMNAMGWYIEAPGKERELVAAISYSGTSTYYADSVKGRFTISRDKAKNTVYLQMNSLKPEDTAVYYCAARVQRLNLGDYNYWGQGTQVTVSS | low polyreactivity |
| QVQLVESGGGLVQAGGSLRLSCAASGNIFPRYAMGWYRQAPGKERELVARISSGGSTDYADSVKGRFTISRDNAKNTVYLQMNSLKPEDTAVYYCAAEYYSQTVNYRRVVGYGYWGQGTQVTVSS | high polyreactivity |
| QVQLVESGGGLVQAGGSLRLSCAASGNIFPYYTLGWYRKAPGKEREWVAAITIGGSTYYADSEKGRFTISRDNAKNTVYLQMNSLKPEDTAVYYCAARSRYYDTRFEYWGQGTQVTVSS | low polyreactivity |
| QVQLVESGGGLVQAGGSLRLSCAASGNIFPYYTMGWYRQAPGKERELVAAISSSGSTYYADSVKGRFTISRDNAKNTVYLQMNSLKPEDTAVYYCAARLYPYGWYDYWGQGTQVTVSS | high polyreactivity |
| QVQLVESGGGLVQAGGSLRLSCAASGNIFRRYAMGWYREAPGKERELVAAISRGGTRTYYADSVKGRFTISRDNAKNTVYLQMNSLKPEDTAVYYCNAEVNTNYRIADYDYWGQGTQVTVSS | high polyreactivity |
| QVQLVESGGGLVQAGGSLRLSCAASGNIFRVYDMGWYRQAPGKERELVPVIRWSSGRTYYADSVKGRFTISRDNAKNTVYLQMNSLKPEDTAVYYCATKLWRVPRNSHYDSYEYWGQGTQVTVSS | high polyreactivity |
| QVQLVESGGGLVQAGGSLRLSCAASGNIFRYYAMGWYRPAPGKERELVAAISSRGGSTYYADSVKGRFTISRDNAKNTVYLQMTSLKPADTAVYYCAAGGYDVYHDPYYYWGQGTQVTVSS | low polyreactivity |
| QVQLVESGGGLVQAGGSLRLSCAASGNIFSAYAMGWYRQAPGKEREFVAAISYSGGNTYYADSVKGRFTISRDNAKNTVYLLMNSLKPEVSAVYYCAARVLNKYYRYGYWGQGTQVTVSS | high polyreactivity |
| QVQLVESGGGLVQAGGSLRLSCAASGNIFSDYAMGSYRQAPGKERELVAAISSGGNTNYADSVKGRFSISRDNAKKTVYLQMNSLKPEDTAVYYCAAFYNTTYTLLPAYSDVNYYYWGQGTQVTVSS | low polyreactivity |
| QVQLVESGGGLVQAGGSLRLSCAASGNIFSFYTMGWYRQAPGKERELVAAISWSGTSTYYADSVKGRFTISRDNAKNTVYLQMNSLKPEDTAVYYCAAERWWSGYEYWGQGTQVTVSS | high polyreactivity |
| QVQLVESGGGLVQAGGSLRLSCAASGNIFSYNAMGWYRQAPGKERELVAAITTSSGRTYYADSVKGRFTISRDNAKNTVYLQMNSLKPEDTAVYYCNRTVSRRSYRWDYDYWGQGTQVTVSS | high polyreactivity |

| Sequence | polyreactivity (PSR sort gate) |
| --- | --- |
| QVQLVESGGGLVQAGGSLRLSCAASGNIFTGNDMGWYRQAPGKERELVAAISKRGGSTFYADSVKGRFTISRDNAKNTVYLQMNSLKPEDTEGYYCNALRRGVRDPYGYWGQGTQVTVSS | high polyreactivity |
| QVQLVESGGGLVQAGGSLRLSCAASGNIFTSYAMGWYRQAPGKERELVAAISSGGRTSYADSVKGRFTISRDNAKNTVYLQMNSLKPEDTAVYYCAAYYRRWPREYYYWGQGTQVTVSS | high polyreactivity |
| QVQLVESGGGLVQAGGSLRLSCAASGNIFTTYAMGWYRQAPGKERELVAAISRTGGRTSYADSVKGRFTISRDNAKNTVYLEMNSLKPVDTAVYYCADTLWRQSNLEYWGQGTQVTVSS | high polyreactivity |
| QVQLVESGGGLVQAGGSLRLSCAASGNIFVFYVMGWYRQAPGKERELVASISSTGNTYYADSVKGRFTISRDNAKNTVYLQMNSLKPEDTAVYYCAAEYYSIRYGPHSIEVYGMDYWGQGTQVTVSS | low polyreactivity |
| QVQLVESGGGLVQAGGSLRLSCAASGNIFVRYVMGWYRQAPGKERELVAAITTSGGSTRYADSVKGRFTISRDNAKNTVYLQMNSLKPEDTAVYYCAARFRYRHLTYGYWGQGTQVTVSS | high polyreactivity |
| QVQLVESGGGLVQAGGSLRLSCAASGNIFWRYAMGWYRQAPGKERELVAAISRRGGSTYYADSVKGRFTISRDNAKNTVYLQMNSLKPEDTAVYYCAASHSTWFSDPYGYWGQGTQVTVSS | low polyreactivity |
| QVQLVESGGGLVQAGGSLRLSCAASGNIFYIYAMGWYRQAPGKERELVASISGRGGRTYYADSVKGRFTISRDNAKNTVYLQMNSLKPEDTAVYYCAADGYRTYSEMDYWGQGTQVTVSS | high polyreactivity |
| QVQLVESGGGLVQAGGSLRLSCAASGNIFYKNNMGWYRQAPGKERELVAAISFSGGGTYYADSVKGRFTISRDNAKNTVYLQMNSLKPEDTAVYYCAAEYTYGWTYRPFDYWGQGTQVTVSS | high polyreactivity |
| QVQLVESGGGLVQAGGSLRLSCAASGNIFYNGMGWYRQAPGKERELVAAIRGSAGRTYADSVKGRFTISRDNAKNTVYLQMNILKPEDTAVYYCAAAKRYYSEMYWGQGTQVTVSS | high polyreactivity |
| QVQLVESGGGLVQAGGSLRLSCAASGNIFYPNAMGGSRQAPGKERGLVAAISSSGGSTYYADSVKGRFTISRDNAKNTVYLQINSLKPEDTAVYYCAKDRSYAYYWSPYPTGYDYWGQGTQVTVSS | low polyreactivity |
| QVQLVESGGGLVQAGGSLRLSCAASGNIFYTNAMGWYRQAPGKERELVATISRSVGSTYYADSVKGRFTISRDNAKNTVYLQMNSLKPEDTAVYYCAASRLLSALTAYSWGFNYWGQGSQVTVSS | high polyreactivity |
| QVQLVESGGGLVQAGGSLRLSCAASGNIFYVYVMGWYRQAPGKERELVAAISRGGGSTYYADSVKGRFTISRDNAKNTVSLQMNSLKPEDTAVYYCAARRGYPSGYEYWGQGTQVTVSS | high polyreactivity |
| QVQLVESGGGLVQAGGSLRLSCAASGNIFYWNVMGWYRQAPGKERELVAVISNGGRTYYADSVKGRFTISRDNAKNTVYLQMNSLKPEDTAVYYCAAEYDRLSKRYDYWGQGTQVTVSS | high polyreactivity |
| QVQLVESGGGLVQAGGSLRLSCAASGNIIDANAMGWYRQAPWKERELVAAITSSGGSTYYADSVKGRFTISRDNAKNTVYLQMNSLNPEDTAVYYCAKSHAIYYWWDESWGQGTQVTVSS | low polyreactivity |
| QVQLVESGGGLVQAGGSLRLSCAASGNIIRKYAMGWYRPAPGKERELVAAITASGGRTFYADSVKGRFTISRDNAKNTVDLQMNSLKPEDTAVYYCATRDSPRTKNGYYYWGQGTQVTVSS | high polyreactivity |
